Reference: PMC10663500, “High-throughput analysis system of interaction kinetics for data-driven antibody design” (Scientific Reports, 2023)

How the values were obtained:
[1] = molecular target: T1, human programmed cell death protein 1 (hPD-1) C93S (aa 24-167) (Homo sapiens, UniProt Q15116, C93S); test: SPR; Carterra LSA; Fab from the ammonium sulfate precipitate of the culture supernatant immobilised on a NiHC200M chip; hPD-1 (1-1024 nM) or mPD-1-Fc (4-1024 nM) as analyte, fourfold dilution series, no regeneration; HBS-EP pH 7.4, 25 °C; medians over the spots of a construct, KD = koff/kon; conditions: one partner purified
T1 construct: made as a fusion with a TEV site and human Fc; the Fc was cut off with TEV protease; source: Expi293F, purified (Protein A, TEV cleavage of Fc, SEC; monomer fractions); not shown: Fc (human), C-terminal, cleaved
T1 sequence (Q15116 24-167 C93S): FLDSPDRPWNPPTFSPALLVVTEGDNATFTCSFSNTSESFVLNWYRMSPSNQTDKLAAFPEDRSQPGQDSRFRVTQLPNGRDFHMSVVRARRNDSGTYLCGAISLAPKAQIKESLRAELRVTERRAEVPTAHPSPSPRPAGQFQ
Method in brief: (§1)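 Fabs from Brevibacillus culture supernatants were ammonium sulfate-precipitated, redissolved in HBS-EP and captured in duplicate on a NiHC200M chip (Carterra LSA, 25 °C). Human PD-1 (1–1024 nM) or mouse PD-1-Fc (4–1024 nM) flowed as fourfold series without regeneration, with 10 min association and 5 min dissociation; unconfirmed binders were set to kon 10^3 […], koff 10^−2 s^−1. Rates came from kdka model fits (slow- or fast-dissociation settings, best fit); KD is koff/kon from per-construct medians.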

[2] = molecular target: T2, mouse programmed cell death protein 1 Fc fusion protein (mPD-1-Fc), mPD-1 C60S (aa 25-167) (Mus musculus, UniProt Q02242, stabilised); test: as above; conditions: one partner purified
T2 construct: not cleaved; source: Expi293F, purified (Protein A, SEC; dimeric fraction); not shown: Fc (human), C-terminal, kept
Method in brief: as §1

Binder	Kd [1] [nM]	koff [1] [s⁻¹]	kon [1] [M⁻¹ s⁻¹]	Kd [2] [nM]	koff [2] [s⁻¹]	kon [2] [M⁻¹ s⁻¹]
toripalimab Fab L.F94Y (Fab, V domains shown, as the heavy chain of Sm3; light chain of Sm3 with this change; numbers count from the chain's first residue; source: Brevibacillus, culture supernatant (ammonium sulfate precipitate); not shown: 6xHis, C-terminal, kept; 6xHN, C-terminal, kept) VH: QGQLVQSGAEVKKPGASVKVSCKASGYTFTDYEMHWVRQAPIHGLEWIGVIESETGGTAYNQKFKGRVTITADKSTSTAYMELSSLRSEDTAVYYCAREGITTVATTYYWYFDVWGQGTTVTVSS VL: DVVMTQSPLSLPVTLGQPASISCRSSQSIVHSNGNTYLEWYLQKPGQSPQLLIYKVSNRFSGVPDRFSGSGSGTDFTLKISRVEAEDVGVYYCYQGSHVPLTFGQGTKLEIK	< 0.968	< 1e-05	10300	155	0.0129	83200
toripalimab Fab L.V99D (Fab, V domains shown, as the heavy chain of Sm3; light chain of Sm3 with this change; numbers count from the chain's first residue; source: Brevibacillus, culture supernatant (ammonium sulfate precipitate); not shown: 6xHis, C-terminal, kept; 6xHN, C-terminal, kept) VH: QGQLVQSGAEVKKPGASVKVSCKASGYTFTDYEMHWVRQAPIHGLEWIGVIESETGGTAYNQKFKGRVTITADKSTSTAYMELSSLRSEDTAVYYCAREGITTVATTYYWYFDVWGQGTTVTVSS VL: DVVMTQSPLSLPVTLGQPASISCRSSQSIVHSNGNTYLEWYLQKPGQSPQLLIYKVSNRFSGVPDRFSGSGSGTDFTLKISRVEAEDVGVYYCFQGSHDPLTFGQGTKLEIK	1.62	1.8e-05	11100	19.8	0.000759	38300
toripalimab Fab L.S97A (Fab, V domains shown, as the heavy chain of Sm3; light chain of Sm3 with this change; numbers count from the chain's first residue; source: Brevibacillus, culture supernatant (ammonium sulfate precipitate); not shown: 6xHis, C-terminal, kept; 6xHN, C-terminal, kept) VH: QGQLVQSGAEVKKPGASVKVSCKASGYTFTDYEMHWVRQAPIHGLEWIGVIESETGGTAYNQKFKGRVTITADKSTSTAYMELSSLRSEDTAVYYCAREGITTVATTYYWYFDVWGQGTTVTVSS VL: DVVMTQSPLSLPVTLGQPASISCRSSQSIVHSNGNTYLEWYLQKPGQSPQLLIYKVSNRFSGVPDRFSGSGSGTDFTLKISRVEAEDVGVYYCFQGAHVPLTFGQGTKLEIK	1.88	4.49e-05	23800	678	0.0274	40400
toripalimab Fab L.V99A (Fab, V domains shown, as the heavy chain of Sm3; light chain of Sm3 with this change; numbers count from the chain's first residue; source: Brevibacillus, culture supernatant (ammonium sulfate precipitate); not shown: 6xHis, C-terminal, kept; 6xHN, C-terminal, kept) VH: QGQLVQSGAEVKKPGASVKVSCKASGYTFTDYEMHWVRQAPIHGLEWIGVIESETGGTAYNQKFKGRVTITADKSTSTAYMELSSLRSEDTAVYYCAREGITTVATTYYWYFDVWGQGTTVTVSS VL: DVVMTQSPLSLPVTLGQPASISCRSSQSIVHSNGNTYLEWYLQKPGQSPQLLIYKVSNRFSGVPDRFSGSGSGTDFTLKISRVEAEDVGVYYCFQGSHAPLTFGQGTKLEIK	1.61	3.6e-05	22300	15.2	0.000353	23300
toripalimab Fab L.H98A (Fab, V domains shown, as the heavy chain of Sm3; light chain of Sm3 with this change; numbers count from the chain's first residue; source: Brevibacillus, culture supernatant (ammonium sulfate precipitate); not shown: 6xHis, C-terminal, kept; 6xHN, C-terminal, kept) VH: QGQLVQSGAEVKKPGASVKVSCKASGYTFTDYEMHWVRQAPIHGLEWIGVIESETGGTAYNQKFKGRVTITADKSTSTAYMELSSLRSEDTAVYYCAREGITTVATTYYWYFDVWGQGTTVTVSS VL: DVVMTQSPLSLPVTLGQPASISCRSSQSIVHSNGNTYLEWYLQKPGQSPQLLIYKVSNRFSGVPDRFSGSGSGTDFTLKISRVEAEDVGVYYCFQGSAVPLTFGQGTKLEIK	< 0.436	< 1e-05	22900	120	0.00523	43600
toripalimab Fab L.V99E (Fab, V domains shown, as the heavy chain of Sm3; light chain of Sm3 with this change; numbers count from the chain's first residue; source: Brevibacillus, culture supernatant (ammonium sulfate precipitate); not shown: 6xHis, C-terminal, kept; 6xHN, C-terminal, kept) VH: QGQLVQSGAEVKKPGASVKVSCKASGYTFTDYEMHWVRQAPIHGLEWIGVIESETGGTAYNQKFKGRVTITADKSTSTAYMELSSLRSEDTAVYYCAREGITTVATTYYWYFDVWGQGTTVTVSS VL: DVVMTQSPLSLPVTLGQPASISCRSSQSIVHSNGNTYLEWYLQKPGQSPQLLIYKVSNRFSGVPDRFSGSGSGTDFTLKISRVEAEDVGVYYCFQGSHEPLTFGQGTKLEIK	< 1.03	< 1e-05	9690	201	0.00742	36800
toripalimab Fab L.V99F (Fab, V domains shown, as the heavy chain of Sm3; light chain of Sm3 with this change; numbers count from the chain's first residue; source: Brevibacillus, culture supernatant (ammonium sulfate precipitate); not shown: 6xHis, C-terminal, kept; 6xHN, C-terminal, kept) VH: QGQLVQSGAEVKKPGASVKVSCKASGYTFTDYEMHWVRQAPIHGLEWIGVIESETGGTAYNQKFKGRVTITADKSTSTAYMELSSLRSEDTAVYYCAREGITTVATTYYWYFDVWGQGTTVTVSS VL: DVVMTQSPLSLPVTLGQPASISCRSSQSIVHSNGNTYLEWYLQKPGQSPQLLIYKVSNRFSGVPDRFSGSGSGTDFTLKISRVEAEDVGVYYCFQGSHFPLTFGQGTKLEIK	2.51	4.24e-05	16900	123	0.00104	8450
toripalimab Fab L.V99L (Fab, V domains shown, as the heavy chain of Sm3; light chain of Sm3 with this change; numbers count from the chain's first residue; source: Brevibacillus, culture supernatant (ammonium sulfate precipitate); not shown: 6xHis, C-terminal, kept; 6xHN, C-terminal, kept) VH: QGQLVQSGAEVKKPGASVKVSCKASGYTFTDYEMHWVRQAPIHGLEWIGVIESETGGTAYNQKFKGRVTITADKSTSTAYMELSSLRSEDTAVYYCAREGITTVATTYYWYFDVWGQGTTVTVSS VL: DVVMTQSPLSLPVTLGQPASISCRSSQSIVHSNGNTYLEWYLQKPGQSPQLLIYKVSNRFSGVPDRFSGSGSGTDFTLKISRVEAEDVGVYYCFQGSHLPLTFGQGTKLEIK	< 1.43	< 1e-05	7020	407	0.00629	15500
toripalimab Fab L.V99G (Fab, V domains shown, as the heavy chain of Sm3; light chain of Sm3 with this change; numbers count from the chain's first residue; source: Brevibacillus, culture supernatant (ammonium sulfate precipitate); not shown: 6xHis, C-terminal, kept; 6xHN, C-terminal, kept) VH: QGQLVQSGAEVKKPGASVKVSCKASGYTFTDYEMHWVRQAPIHGLEWIGVIESETGGTAYNQKFKGRVTITADKSTSTAYMELSSLRSEDTAVYYCAREGITTVATTYYWYFDVWGQGTTVTVSS VL: DVVMTQSPLSLPVTLGQPASISCRSSQSIVHSNGNTYLEWYLQKPGQSPQLLIYKVSNRFSGVPDRFSGSGSGTDFTLKISRVEAEDVGVYYCFQGSHGPLTFGQGTKLEIK	1.75	1.44e-05	8230	< 0.848	< 1e-05	11800
toripalimab Fab L.Q95A (Fab, V domains shown, as the heavy chain of Sm3; light chain of Sm3 with this change; numbers count from the chain's first residue; source: Brevibacillus, culture supernatant (ammonium sulfate precipitate); not shown: 6xHis, C-terminal, kept; 6xHN, C-terminal, kept) VH: QGQLVQSGAEVKKPGASVKVSCKASGYTFTDYEMHWVRQAPIHGLEWIGVIESETGGTAYNQKFKGRVTITADKSTSTAYMELSSLRSEDTAVYYCAREGITTVATTYYWYFDVWGQGTTVTVSS VL: DVVMTQSPLSLPVTLGQPASISCRSSQSIVHSNGNTYLEWYLQKPGQSPQLLIYKVSNRFSGVPDRFSGSGSGTDFTLKISRVEAEDVGVYYCFAGSHVPLTFGQGTKLEIK	2.28	4.22e-05	18500	130	0.00506	39000
toripalimab Fab L.V99I (Fab, V domains shown, as the heavy chain of Sm3; light chain of Sm3 with this change; numbers count from the chain's first residue; source: Brevibacillus, culture supernatant (ammonium sulfate precipitate); not shown: 6xHis, C-terminal, kept; 6xHN, C-terminal, kept) VH: QGQLVQSGAEVKKPGASVKVSCKASGYTFTDYEMHWVRQAPIHGLEWIGVIESETGGTAYNQKFKGRVTITADKSTSTAYMELSSLRSEDTAVYYCAREGITTVATTYYWYFDVWGQGTTVTVSS VL: DVVMTQSPLSLPVTLGQPASISCRSSQSIVHSNGNTYLEWYLQKPGQSPQLLIYKVSNRFSGVPDRFSGSGSGTDFTLKISRVEAEDVGVYYCFQGSHIPLTFGQGTKLEIK	< 0.7	< 1e-05	14300	289	0.014	48500
toripalimab Fab L.V99K (Fab, V domains shown, as the heavy chain of Sm3; light chain of Sm3 with this change; numbers count from the chain's first residue; source: Brevibacillus, culture supernatant (ammonium sulfate precipitate); not shown: 6xHis, C-terminal, kept; 6xHN, C-terminal, kept) VH: QGQLVQSGAEVKKPGASVKVSCKASGYTFTDYEMHWVRQAPIHGLEWIGVIESETGGTAYNQKFKGRVTITADKSTSTAYMELSSLRSEDTAVYYCAREGITTVATTYYWYFDVWGQGTTVTVSS VL: DVVMTQSPLSLPVTLGQPASISCRSSQSIVHSNGNTYLEWYLQKPGQSPQLLIYKVSNRFSGVPDRFSGSGSGTDFTLKISRVEAEDVGVYYCFQGSHKPLTFGQGTKLEIK	30.7	0.000131	4260	285	0.00439	15400
toripalimab Fab H.I51A (Fab, V domains shown, heavy chain of Sm3 with this change; numbers count from the chain's first residue; as the light chain of Sm3; source: Brevibacillus, culture supernatant (ammonium sulfate precipitate); not shown: 6xHis, C-terminal, kept; 6xHN, C-terminal, kept) VH: QGQLVQSGAEVKKPGASVKVSCKASGYTFTDYEMHWVRQAPIHGLEWIGVAESETGGTAYNQKFKGRVTITADKSTSTAYMELSSLRSEDTAVYYCAREGITTVATTYYWYFDVWGQGTTVTVSS VL: DVVMTQSPLSLPVTLGQPASISCRSSQSIVHSNGNTYLEWYLQKPGQSPQLLIYKVSNRFSGVPDRFSGSGSGTDFTLKISRVEAEDVGVYYCFQGSHVPLTFGQGTKLEIK	1.06	1.6e-05	15100	630	0.04	63500
toripalimab Fab L.H98Y (Fab, V domains shown, as the heavy chain of Sm3; light chain of Sm3 with this change; numbers count from the chain's first residue; source: Brevibacillus, culture supernatant (ammonium sulfate precipitate); not shown: 6xHis, C-terminal, kept; 6xHN, C-terminal, kept) VH: QGQLVQSGAEVKKPGASVKVSCKASGYTFTDYEMHWVRQAPIHGLEWIGVIESETGGTAYNQKFKGRVTITADKSTSTAYMELSSLRSEDTAVYYCAREGITTVATTYYWYFDVWGQGTTVTVSS VL: DVVMTQSPLSLPVTLGQPASISCRSSQSIVHSNGNTYLEWYLQKPGQSPQLLIYKVSNRFSGVPDRFSGSGSGTDFTLKISRVEAEDVGVYYCFQGSYVPLTFGQGTKLEIK	0.737	1.34e-05	18100	396	0.0148	37400
toripalimab Fab L.V99H (Fab, V domains shown, as the heavy chain of Sm3; light chain of Sm3 with this change; numbers count from the chain's first residue; source: Brevibacillus, culture supernatant (ammonium sulfate precipitate); not shown: 6xHis, C-terminal, kept; 6xHN, C-terminal, kept) VH: QGQLVQSGAEVKKPGASVKVSCKASGYTFTDYEMHWVRQAPIHGLEWIGVIESETGGTAYNQKFKGRVTITADKSTSTAYMELSSLRSEDTAVYYCAREGITTVATTYYWYFDVWGQGTTVTVSS VL: DVVMTQSPLSLPVTLGQPASISCRSSQSIVHSNGNTYLEWYLQKPGQSPQLLIYKVSNRFSGVPDRFSGSGSGTDFTLKISRVEAEDVGVYYCFQGSHHPLTFGQGTKLEIK	23.1	0.000239	10400	334	0.00991	29600
